Laboratory results from US20240084044A1, “Heteromultivalent Nucleic Acid Scaffolds and Uses Thereof” (George Mason University, priority 2022, published 2024).
Bridges are numbered along the chain shown (N, C = ends). Roman numbers before positions name the chains, in order.

What was measured:
[1] = molecular target: T1, IL-1RAcP/ST2/IL-33 ternary complex (Homo sapiens, UniProt O95760+Q01638); assay: Crosslinking assay of ternary complex (trimer) formation with recombinant IL-33, ST2 and IL-1RAcP; format: biochemical
T1 construct: included the extracellular domains, K19-F328 and S21-E359, respectively; the cleaved mature proteins, S112-T270, A117-S269, and R2-S310, respectively; purchased Sino Biologicals ST2 10105-HCCH; IL1RAcP 10121-H08H; IL-33 10368-HNAE; host or cells: ST2 and IL1RAcP: HEK293; IL-33: E. coli
T1 sequence (Q01638 19-328 isoform Q01638-2): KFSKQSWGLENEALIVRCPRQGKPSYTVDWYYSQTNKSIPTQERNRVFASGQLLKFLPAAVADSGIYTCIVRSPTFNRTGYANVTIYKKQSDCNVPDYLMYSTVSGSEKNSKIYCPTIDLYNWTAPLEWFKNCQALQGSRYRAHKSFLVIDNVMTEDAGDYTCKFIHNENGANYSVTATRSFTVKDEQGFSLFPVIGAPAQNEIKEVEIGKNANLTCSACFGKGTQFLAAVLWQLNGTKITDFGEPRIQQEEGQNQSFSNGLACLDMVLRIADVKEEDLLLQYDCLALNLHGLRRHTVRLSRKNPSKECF
T1 sequence (O95760 112-270): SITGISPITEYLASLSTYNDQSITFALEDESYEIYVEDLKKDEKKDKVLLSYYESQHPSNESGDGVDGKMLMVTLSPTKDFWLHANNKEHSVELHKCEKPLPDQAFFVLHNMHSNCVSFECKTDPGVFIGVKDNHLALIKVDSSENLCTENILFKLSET
Procedure: MSTOP dose curves were performed with a crosslinking assay. Recombinant IL-33, ST2, and IL-1RAcP were combined as described above and incubated at RT for 30 m in PBS or treated with 10 μM of 3WJ scaffold, WT peptides, or MSTOP in a dose range of 10 μM to 1 nM (1:10 serial dilution). Following incubation, 1 μL of 2.5 mM Disuccinimidyl suberate (DSS, 83 μM) homobifunctional crosslinker was added and reactions were incubated for […] at RT., then quenched with 1 μL of 1 M Tris-HCl. Samples were then prepared for electrophoresis.
The native receptor has a KD value of 10 μM illustrative of the fact that the interaction is weak and transient (FIG. 3A). […] The prototype MSTOP was finally assessed for bioactivity via prevention of IL-33/ST2 signaling activation. The MSTOP was first tested in vitro with recombinant ST2, IL-33, and IL-1RAcP incubated together in its endogenous 1:1:1 stoichiometry for 30 minutes. Reactions were then treated with DSS homobifunctional NETS-based crosslinker (final concentration ˜85 μM) to tether formed trimers. Trimer resolved at the predicted 120 kDa in semi-native conditions, while unbound IL-1RAcP resolved at 50 kDa. Quantification of IL-1RAcP at 120 kDa was normalized against total lane IL-1RAcP input, with the untreated trimer control representing 100% trimerization. […]

[2] = tested on: IL-1β signaling (HEK-Blue IL-1β cells); assay: SEAP reporter assay in HEK-Blue IL-1β reporter cells; format: cell-based, human; conditions: 10 μM; 250 pg/mL IL-1β
Procedure: HEK-Blue® IL-33 (Invivogen, Cat. #hkb-hil33) and IL-1β cells (Invivogen, Cat #hkb-il1bv2) were cultured in T25 and T75 flasks (NUNC, Cat. #156367 and #156499) in DMEM media supplemented with L-glutamine (Gibco, Cat. #11995-065), 10% Fetal Bovine Serum (Gibco, Cat. #10437-028), 1% Penicillin/Streptomycin (Gibco, Cat. #15140-148), and 0.5% Normacin® (Invivogen, Cat. #ant-hr-1). IL-33 cell growth media also included 1 mL of 250× Selectin Cocktail® (Invivogen, Cat. #hb-sel) and IL-1β cell growth media included 100 μg/mL of Zeocin® (Cat #ant-zn-05). Cells were maintained at 37° C. with humidity and 5% CO2 and were passaged upon reaching 80-85% confluency. To ensure assay consistency, passage number was kept low (<20) to maintain stable ST2 and IL-1RI expression.
IL-33 and IL-1β signaling activation was assessed based on the expression of a SEAP reporter gene. Flasks were washed 2× with prewarmed, sterile PBS (Gibco), scraped in fresh media, and spun down for 5 m at 250×g. Pellet was resuspended in 5 mL test medium (DMEM, 10% heat inactivated FBS, and 1% P/S), cells counted, and concentration adjusted to 2.8×10^5 cell/mL. […] After incubation, SEAP reporter gene phosphatase activity was measured by adding 20 μL of supernatant from each well to 180 μL of QuantiBLUE substrate (Invivogen, Cat #rep-qbs) and incubated an additional 30 min at 37° C. Colorimetric absorbance was measured at 620 nm. […]

- reduction of trimer formation ([1]; 1 μM treatment): approximately 40%
- reduction in trimer formation ([1]; 10 μM treatment, DSS crosslinking western blot): 70%
Substance: MSTOP: 3WJ DNA scaffold whose three DBCO staple strands carry cyclized azidolysine IL-1RAcP hotspot peptides; decoy for IL-33/ST2 (peptide 1 Ac-CKEYGIQRITC-NH2; peptide 2 Ac-AKVGSPKNAVPPC-NH2; peptide 3 Ac-CKGEVAKAAKVKC-NH2; disulfide I:1-I:11, III:1-III:13; thioether II:1-II:13; not fully specified (some residues); also: three peptides held on a 3-way junction DNA scaffold via DBCO staple strands)
- reduction in SEAP expression [2]: Negligible reduction
